Measured values from US20230287120A1 (ALLOGENE THERAPEUTICS, published 2023).

T1: Flag tagged recombinant DLL3 (Adipogen) (Homo sapiens (Human), UniProt Q9NYJ7 27-492)
T1 construct: Bought reagent; also called Flag-DLL3
T1 sequence: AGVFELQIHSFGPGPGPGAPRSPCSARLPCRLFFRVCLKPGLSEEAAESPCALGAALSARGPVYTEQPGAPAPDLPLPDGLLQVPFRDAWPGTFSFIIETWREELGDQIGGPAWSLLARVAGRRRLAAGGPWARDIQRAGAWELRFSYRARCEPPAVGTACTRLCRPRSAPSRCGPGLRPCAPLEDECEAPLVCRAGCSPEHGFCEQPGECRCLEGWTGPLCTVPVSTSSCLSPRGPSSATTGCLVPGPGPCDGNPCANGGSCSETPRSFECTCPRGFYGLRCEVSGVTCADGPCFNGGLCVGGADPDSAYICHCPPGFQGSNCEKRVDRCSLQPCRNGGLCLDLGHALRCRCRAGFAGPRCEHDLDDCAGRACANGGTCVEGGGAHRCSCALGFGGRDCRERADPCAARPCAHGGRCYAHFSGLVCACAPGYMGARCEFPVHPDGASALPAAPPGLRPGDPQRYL


What was measured:
[1] = target: T1, Flag tagged recombinant DLL3 (Adipogen); assay: flow cytometry, percent of T cells that recognise recombinant DLL3, Donor 503
Protocol: (§1) To determine the percentage of T cells that were successfully transduced with DLL3 CAR, T cells were first incubated with 1 ug/ml Flag tagged recombinant DLL3 (Adipogen) in PBS+1% BSA for 20 minutes at 4 C.

[2] = target: T1, Flag tagged recombinant DLL3 (Adipogen); assay: flow cytometry, percent of T cells that recognise recombinant DLL3, Donor 419
Protocol: as §1

[3] = target: T1, Flag tagged recombinant DLL3 (Adipogen); assay: flow cytometry, primary T cells with the CAR, 1 ug/ml Flag tagged recombinant DLL3, PE anti-Flag
Protocol: as §1

[4] = target: T1, Flag tagged recombinant DLL3 (Adipogen); assay: flow cytometry, percent of T cells that recognise recombinant DLL3, Donor 116
Protocol: as §1

[5] = target: T1, Flag tagged recombinant DLL3 (Adipogen); assay: flow cytometry, percent of T cells that recognise recombinant DLL3, Donor 117
Protocol: as §1

Binder | Transduction efficiency [1] [%] | Transduction efficiency [2] [%] | Rec-DLL3 gate, percent of live CD3+ cells [3] [%] | Transduction efficiency [4] [%] | Transduction efficiency [5] [%]
3B1 (other, also called anti-DLL3 CAR with 3B1 scFv, on primary T cells) CAR: QVQLQQSGPGLVKPSQTLSLTCAISGDSVSSNTTAWKWSRQSPSKGLEWLGWTYYRSKWYYDYTVSVKSRITINPDTSKNQFSLQLNSVTPEDTAVYYCARWIFHDAFDIWGQGTMVTVSSGGGGSGGGGSGGGGSGGGGSQSALTQPPSASGTPGQRVTISCSGSSSNIGSNTVNWYQQLPGTAPKLLIYTNNQRPSGVPDRFSGSKSGTSASLAISGLQSEDEADYFCSTWDDSLNGPVFGGGTKLTVLTTTPAPRPPTPAPTIASQPLSLRPEACRPAAGGAVHTRGLDFACDIYIWAPLAGTCGVLLLSLVITKRGRKKLLYIFKQPFMRPVQTTQEEDGCSCRFPEEEEGGCELRVKFSRSADAPAYQQGQNQLYNELNLGRREEYDVLDKRRGRDPEMGGKPRRKNPQEGLYNELQKDKMAEAYSEIGMKGERRRGKGHDGLYQGLSTATKDTYDALHMQALPPR | 7.95 | 6.15 | – | – | –
11E4 (other, also called anti-DLL3 CAR with 11E4 scFv, on primary T cells) CAR: QVQLQESGPGLVKPSETLSLTCTVSGGSISSYYWSWIRQSPGKGLEWIGYVYYSDITNYNPSLKSRVTISVDTSKNQFSLNLNSVTAADTAFYFCARIGVAGFYFDYWGQGTLVTVSSGGGGSGGGGSGGGGSGGGGSEIVLTQSPDTLSLSPGERATLSCRASQSVSRRYLAWYQQKPGQAPRLLIYGASSRATGIPDRFSGSGSGTDFTLTISRLEPEDFEVYYCQQYGTSPITFGQGTRLEIKTTTPAPRPPTPAPTIASQPLSLRPEACRPAAGGAVHTRGLDFACDIYIWAPLAGTCGVLLLSLVITKRGRKKLLYIFKQPFMRPVQTTQEEDGCSCRFPEEEEGGCELRVKFSRSADAPAYQQGQNQLYNELNLGRREEYDVLDKRRGRDPEMGGKPRRKNPQEGLYNELQKDKMAEAYSEIGMKGERRRGKGHDGLYQGLSTATKDTYDALHMQALPPR | 62.8 | 54.8 | – | – | –
2A6.C5 (other, also called anti-DLL3 CAR with 2A6.C5 scFv, on primary T cells) CAR: QVQLQESGPGLVKPSETLSLTCTVSNVSISSYYWSWIRQPPGKGLEWIGYIYYSGTTNYNPSLKSRVTMSVDTSKNQFSLKLSSVTAADTAVYFCARLSNWGFAFDIWGQGTMVTFSSGGGGSGGGGSGGGGSGGGGSEIVLTQSPGTLSLSPGERATLSCRASQTISSSYLAWYQQKPGQAPRLLIYGASSRATGIPDRFSGSGSGTEFTLTISRLEPEDFAVYYCQQYGWSPITFGQGTRLEIKTTTPAPRPPTPAPTIASQPLSLRPEACRPAAGGAVHTRGLDFACDIYIWAPLAGTCGVLLLSLVITKRGRKKLLYIFKQPFMRPVQTTQEEDGCSCRFPEEEEGGCELRVKFSRSADAPAYQQGQNQLYNELNLGRREEYDVLDKRRGRDPEMGGKPRRKNPQEGLYNELQKDKMAEAYSEIGMKGERRRGKGHDGLYQGLSTATKDTYDALHMQALPPR | – | – | 37.2 | 37.2 | 37.7
4E1 (other, also called anti-DLL3 CAR with 4E1 scFv, on primary T cells) CAR: QVQLQQSGPGLVKPSQTLSLTCAISGDNVSTNSAAWNWIRQSPSRGLEWLGWTYYRSKWYNDYAVSLKSRININPDTSKNQFSLQLNSVTPEDTAVYYCARWVNRDVFDIWGQGTMVTVSSGGGGSGGGGSGGGGSGGGGSQSALTQPASVSGSPGQSITISCTGTSSDVGSYNLVSWYQQHPGKAPKLMIYEGSKRPSGVSNRFSGSKSGNTASLTISGLQAEDEADYYCCSYAGSSTWVFGGGTKLTVLTTTPAPRPPTPAPTIASQPLSLRPEACRPAAGGAVHTRGLDFACDIYIWAPLAGTCGVLLLSLVITKRGRKKLLYIFKQPFMRPVQTTQEEDGCSCRFPEEEEGGCELRVKFSRSADAPAYQQGQNQLYNELNLGRREEYDVLDKRRGRDPEMGGKPRRKNPQEGLYNELQKDKMAEAYSEIGMKGERRRGKGHDGLYQGLSTATKDTYDALHMQALPPR | 3.18 | 2.35 | – | – | –
11A8 (other, also called anti-DLL3 CAR with 11A8 scFv, on primary T cells) CAR: QVQLQQSGPGLVKPSQTLSLTCAISGDSVSSNSATWNWIRQSPSTGLEWLARTYYRSKWYNDYEVSVKSQITINPDTSKNQFSLQLNSVTPEDTAVYYCARGGIVGAPDAFDIWGQGTMVTVSSGGGGSGGGGSGGGGSGGGGSQSVLTQPPSASGTPGQGVTISCSGSSSNIGSNPVNWYQQLPGTAPKLLIYSNNQRPSGVPDRFSDSKSGTSASLAISGLQSEDEADYYCSAWDDWLNGYVFGTGTKVTVLTTTPAPRPPTPAPTIASQPLSLRPEACRPAAGGAVHTRGLDFACDIYIWAPLAGTCGVLLLSLVITKRGRKKLLYIFKQPFMRPVQTTQEEDGCSCRFPEEEEGGCELRVKFSRSADAPAYQQGQNQLYNELNLGRREEYDVLDKRRGRDPEMGGKPRRKNPQEGLYNELQKDKMAEAYSEIGMKGERRRGKGHDGLYQGLSTATKDTYDALHMQALPPR | 45.1 | 33.4 | – | – | –
3B11 (other, also called anti-DLL3 CAR with 3B11 scFv, on primary T cells) CAR: QVQLQQSGPGLVKPSQTLSLTCAISGDSVSSNSVVWNWIRQSPSRGLEWLGRTYYRSKWYDDYAVSVKSRITINPDTSKNQFSLQLNSVTPEDTAVYHCARGGIVGAPDAFDIWGQGTMVTVSSGGGGSGGGGSGGGGSGGGGSQSVLTQPPSASGTPGQRVTISCSGSSSNIGSDPVSWYQQFPGTAPKLLIYTNNQRPSGVPDRFSGSKSGTSASLAISGLQSEDEADYYCAAWDDSLNGHVFGTGTKVTVLTTTPAPRPPTPAPTIASQPLSLRPEACRPAAGGAVHTRGLDFACDIYIWAPLAGTCGVLLLSLVITKRGRKKLLYIFKQPFMRPVQTTQEEDGCSCRFPEEEEGGCELRVKFSRSADAPAYQQGQNQLYNELNLGRREEYDVLDKRRGRDPEMGGKPRRKNPQEGLYNELQKDKMAEAYSEIGMKGERRRGKGHDGLYQGLSTATKDTYDALHMQALPPR | 65.8 | 57.3 | – | – | –
5G2 (other, also called anti-DLL3 CAR with 5G2 scFv, on primary T cells) CAR: QVQLQQSGPGLVKPSQTLSLTCAISGDSVSSNSAVWNWIRQSPSRGLEWLGWTYYRSKYYNDYAVSLKSRITINPDTSKNQFSLQLNSLTPEDTAVYYCTRGGIVGAPDGFDIWGQGTMVTVSSGGGGSGGGGSGGGGSGGGGSQSALTQPPSASGTPGQRVTISCSGSNSNIGSNPINWYQQLPGTAPKLLIYSNNQRPSGVPDRFSGSKSGTSASLAISGLQSEDEADYYCAAWDDSLNGHVFGTGTKVTVLTTTPAPRPPTPAPTIASQPLSLRPEACRPAAGGAVHTRGLDFACDIYIWAPLAGTCGVLLLSLVITKRGRKKLLYIFKQPFMRPVQTTQEEDGCSCRFPEEEEGGCELRVKFSRSADAPAYQQGQNQLYNELNLGRREEYDVLDKRRGRDPEMGGKPRRKNPQEGLYNELQKDKMAEAYSEIGMKGERRRGKGHDGLYQGLSTATKDTYDALHMQALPPR | 42.8 | 36.7 | – | – | –
2404.6H1 (other, also called anti-DLL3 CAR with 2404.6H1 scFv, on primary T cells) CAR: QVQLVESGGGVVQPGRSLRLSCAASGFTFSSYGMHWVRQTPGKGLEWVAVISYDGNSNYYADSVKGRFTISRDNSKNTLYLQMNSLRAEDTAVYYCARDGATVTSYYYYGMDVWGQGTTVTVSSGGGGSGGGGSGGGGSGGGGSEIVLTQSPGTLSLSPGERATLSCRASQSVSRTYLAWYHQKPGQAPRLLIYGASSRATGISDRFSGSGSGTDFTLTISRLEPEDFAVYYCQQYGTSPITFGQGTRLEIKTTTPAPRPPTPAPTIASQPLSLRPEACRPAAGGAVHTRGLDFACDIYIWAPLAGTCGVLLLSLVITKRGRKKLLYIFKQPFMRPVQTTQEEDGCSCRFPEEEEGGCELRVKFSRSADAPAYQQGQNQLYNELNLGRREEYDVLDKRRGRDPEMGGKPRRKNPQEGLYNELQKDKMAEAYSEIGMKGERRRGKGHDGLYQGLSTATKDTYDALHMQALPPR | 6.41 | 6.01 | – | – | –
10A2 (other, also called anti-DLL3 CAR with 10A2 scFv, on primary T cells) CAR: QVQLQQSGPGLVKPSETLSLTCAISGDSVSSNSATWNWIRQSPSRGLEWLGRTYYRSEWYNDYAVSVKSRITINPDTSKNHLSLHLNSVTPEDTAVYYCAGGGIVGAPDGFDVWGQGTMVTVSSGGGGSGGGGSGGGGSGGGGSQSVLTQPPSASGTPGQRVTISCSGSSSNIGSDPVIWYQQLPRTAPKLLIYSNNQRPSGVPDRFSGSKSGTSASLAISGLQSEDEADYYCAAWDDSLNGYVFGTGTKVTVLTTTPAPRPPTPAPTIASQPLSLRPEACRPAAGGAVHTRGLDFACDIYIWAPLAGTCGVLLLSLVITKRGRKKLLYIFKQPFMRPVQTTQEEDGCSCRFPEEEEGGCELRVKFSRSADAPAYQQGQNQLYNELNLGRREEYDVLDKRRGRDPEMGGKPRRKNPQEGLYNELQKDKMAEAYSEIGMKGERRRGKGHDGLYQGLSTATKDTYDALHMQALPPR | 67.6 | 58.5 | – | – | –
2D3 (other, also called anti-DLL3 CAR with 2D3 scFv, on primary T cells) CAR: QVQLQESGPGLVKPSETLSLTCTVSDNSISNYYWSWIRQPPGKGLEWIAYIYYSGTTNYNPSLKSRVTISLDTSKNQFSLKLSSVTAADTAVYYCARLFNWGFAFDIWGQGTMVTVSSGGGGSGGGGSGGGGSGGGGSEIVMTQSPATLSVSPGERATLSCRASQSVSSNLAWYQQKPGQAPRLLIYGASTRATGIPARFSGSGSGTEFTLTISSLQSEDFAVYYCQQYNNWPLTFGGGTKVEIKTTTPAPRPPTPAPTIASQPLSLRPEACRPAAGGAVHTRGLDFACDIYIWAPLAGTCGVLLLSLVITKRGRKKLLYIFKQPFMRPVQTTQEEDGCSCRFPEEEEGGCELRVKFSRSADAPAYQQGQNQLYNELNLGRREEYDVLDKRRGRDPEMGGKPRRKNPQEGLYNELQKDKMAEAYSEIGMKGERRRGKGHDGLYQGLSTATKDTYDALHMQALPPR | – | – | 46.1 | 46.1 | 47.4
